Data taken from paper PMC11187062 (2024).

T1: human UHRF1 PHD finger, residues 299–366 (human, UniProt Q96T88 299-366)
T1 chain: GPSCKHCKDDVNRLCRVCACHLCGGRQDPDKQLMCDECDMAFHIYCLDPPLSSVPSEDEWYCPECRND


Target: T1, human UHRF1 PHD finger, residues 299–366
Assay: ITC

Row | Kd | Binder
1 | 1280 nM | SRRGVRTALSVQREKMARLRYMLLGGVRTHERRPTNKE (domain or fragment) [hDPPA3_(81-118) L88A]
2 | 1610 nM | SRRGARTLLSVQREKMARLRYMLLGGVRTHERRPTNKE (domain or fragment) [hDPPA3_(81-118) V85A]
